Sequences and labels used below:
T1: angiopoietin-2 (Ang2) (human, UniProt O15123 68-496, limits assumed, biotinylated in Examples 22-24 (R&D cat#BT633))
T1 construct: also called rhAng2; recombinant Ang2
T1 sequence (looked up): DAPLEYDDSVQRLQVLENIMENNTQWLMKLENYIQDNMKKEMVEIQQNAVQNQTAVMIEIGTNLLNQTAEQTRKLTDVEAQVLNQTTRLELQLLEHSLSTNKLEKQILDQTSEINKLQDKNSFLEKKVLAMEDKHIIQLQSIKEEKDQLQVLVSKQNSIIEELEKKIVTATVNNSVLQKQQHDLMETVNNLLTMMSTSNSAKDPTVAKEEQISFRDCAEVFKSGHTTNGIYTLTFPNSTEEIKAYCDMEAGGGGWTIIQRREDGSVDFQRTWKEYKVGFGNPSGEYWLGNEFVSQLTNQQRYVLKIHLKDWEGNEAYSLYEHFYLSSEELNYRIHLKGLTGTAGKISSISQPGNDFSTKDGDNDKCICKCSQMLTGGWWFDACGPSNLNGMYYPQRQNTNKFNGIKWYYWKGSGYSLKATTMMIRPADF

B1: LM32 variant SEQ ID NO:88 expressed as MBP fusion protein (other, not shown: large carriers; small tags and cut ends)
chain: KSLSLSPGSGGGSMGAQTNFMPMDNDEGLLYEQFILQQGLE
modifications: not fully specified (N-terminus); also: fused to maltose binding protein carrier at N-terminus
B2: LM32 variant SEQ ID NO:97 expressed as MBP fusion protein (other, not shown: large carriers; small tags and cut ends)
chain: B1 chain with G28A, Q33E
modifications: not fully specified (N-terminus); also: fused to maltose binding protein carrier at N-terminus
B3: LM32 variant SEQ ID NO:90 expressed as MBP fusion protein (other, not shown: large carriers; small tags and cut ends)
chain: B1 chain with G28A
modifications: not fully specified (N-terminus); also: fused to maltose binding protein carrier at N-terminus
B4: LM32 variant SEQ ID NO:94 expressed as MBP fusion protein (other, not shown: large carriers; small tags and cut ends)
chain: B1 chain with G28A, L36Y
modifications: not fully specified (N-terminus); also: fused to maltose binding protein carrier at N-terminus
B5: LM32 variant SEQ ID NO:93 expressed as MBP fusion protein (other, not shown: large carriers; small tags and cut ends)
chain: B1 chain with L36Y
modifications: not fully specified (N-terminus); also: fused to maltose binding protein carrier at N-terminus
B6: LM32 variant SEQ ID NO:100 expressed as MBP fusion protein (other, not shown: large carriers; small tags and cut ends)
peptide: B1 chain with N25D, G28L
modifications: not fully specified (N-terminus); also: fused to maltose binding protein carrier at N-terminus
B7: LM32 variant SEQ ID NO:91 expressed as MBP fusion protein (other, not shown: large carriers; small tags and cut ends)
chain: B1 chain with G28L, L29T
modifications: not fully specified (N-terminus); also: fused to maltose binding protein carrier at N-terminus
B8: LM32 variant SEQ ID NO:96 expressed as MBP fusion protein (other, not shown: large carriers; small tags and cut ends)
chain: B1 chain with Q33E
modifications: not fully specified (N-terminus); also: fused to maltose binding protein carrier at N-terminus
B9: LM32 variant SEQ ID NO:99 expressed as MBP fusion protein (other, not shown: large carriers; small tags and cut ends)
chain: B1 chain with N25Q, G28L
modifications: not fully specified (N-terminus); also: fused to maltose binding protein carrier at N-terminus
B10: LM32 variant SEQ ID NO:142 expressed as MBP fusion protein (other, not shown: large carriers; small tags and cut ends)
chain: KSLSLSPGSGGGSMGAQTNFMPMDNDELLLYEQFI
modifications: not fully specified (N-terminus); also: fused to maltose binding protein carrier at N-terminus
B11: LM32 variant SEQ ID NO:143 expressed as MBP fusion protein (other, not shown: large carriers; small tags and cut ends)
chain: B10 chain with D26E
modifications: not fully specified (N-terminus); also: fused to maltose binding protein carrier at N-terminus
B12: Her-1L-RP (bispecific antibody)
light (part 1 of 2): not shown
light (part 2 of 2): SSGGGGSGGGGGGSSRSSSFYSCLESLVNGPAEKSRGQWDGCRKK
heavy: not shown
notes: also called Her-lL-RP; not shown: kappa light chain constant region; heavy chain constant region
B13: Her-sL-RGD4C (bispecific antibody)
light (part 1 of 2): not shown
light (part 2 of 2): GGGSCDCRGDCFC
heavy: not shown
notes: also called C-terminal fusion of integrin αvβ3 targeting MRD with the ErbB2 antibody with the short linker peptide; not shown: kappa light chain constant region; heavy chain constant region

Substitutions are numbered along the chain they refer to. No end group written: not given here.

Sequence of integrin αvβ3 (ELISA antigen) (P06756 31-992 limits assumed, chain 1 of 2): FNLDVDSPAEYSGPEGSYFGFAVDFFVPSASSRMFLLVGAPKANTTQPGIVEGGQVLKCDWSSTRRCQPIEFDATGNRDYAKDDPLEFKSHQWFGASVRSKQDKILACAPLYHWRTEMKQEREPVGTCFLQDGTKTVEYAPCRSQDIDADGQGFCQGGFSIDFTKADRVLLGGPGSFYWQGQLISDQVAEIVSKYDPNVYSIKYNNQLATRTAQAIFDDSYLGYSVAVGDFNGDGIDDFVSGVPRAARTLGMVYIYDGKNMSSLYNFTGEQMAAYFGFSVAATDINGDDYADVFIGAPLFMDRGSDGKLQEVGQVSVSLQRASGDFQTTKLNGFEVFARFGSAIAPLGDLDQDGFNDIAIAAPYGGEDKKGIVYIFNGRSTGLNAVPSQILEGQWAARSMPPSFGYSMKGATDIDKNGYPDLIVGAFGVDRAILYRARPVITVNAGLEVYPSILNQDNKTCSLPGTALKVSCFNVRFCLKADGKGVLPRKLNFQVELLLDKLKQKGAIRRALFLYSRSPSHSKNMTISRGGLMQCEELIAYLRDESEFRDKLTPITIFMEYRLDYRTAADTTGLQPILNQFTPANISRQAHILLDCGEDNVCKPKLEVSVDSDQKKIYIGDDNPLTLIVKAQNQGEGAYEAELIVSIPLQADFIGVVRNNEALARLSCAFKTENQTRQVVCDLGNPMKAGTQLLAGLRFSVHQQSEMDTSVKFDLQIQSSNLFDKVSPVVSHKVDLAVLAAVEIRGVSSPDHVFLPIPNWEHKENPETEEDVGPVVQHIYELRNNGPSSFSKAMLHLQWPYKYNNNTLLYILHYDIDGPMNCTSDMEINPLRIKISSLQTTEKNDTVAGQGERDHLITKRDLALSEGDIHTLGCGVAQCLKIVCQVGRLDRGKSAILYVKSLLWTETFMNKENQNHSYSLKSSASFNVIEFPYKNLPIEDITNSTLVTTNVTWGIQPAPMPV
Sequence of integrin αvβ3 (ELISA antigen) (P05106 27-718 limits assumed, chain 2 of 2): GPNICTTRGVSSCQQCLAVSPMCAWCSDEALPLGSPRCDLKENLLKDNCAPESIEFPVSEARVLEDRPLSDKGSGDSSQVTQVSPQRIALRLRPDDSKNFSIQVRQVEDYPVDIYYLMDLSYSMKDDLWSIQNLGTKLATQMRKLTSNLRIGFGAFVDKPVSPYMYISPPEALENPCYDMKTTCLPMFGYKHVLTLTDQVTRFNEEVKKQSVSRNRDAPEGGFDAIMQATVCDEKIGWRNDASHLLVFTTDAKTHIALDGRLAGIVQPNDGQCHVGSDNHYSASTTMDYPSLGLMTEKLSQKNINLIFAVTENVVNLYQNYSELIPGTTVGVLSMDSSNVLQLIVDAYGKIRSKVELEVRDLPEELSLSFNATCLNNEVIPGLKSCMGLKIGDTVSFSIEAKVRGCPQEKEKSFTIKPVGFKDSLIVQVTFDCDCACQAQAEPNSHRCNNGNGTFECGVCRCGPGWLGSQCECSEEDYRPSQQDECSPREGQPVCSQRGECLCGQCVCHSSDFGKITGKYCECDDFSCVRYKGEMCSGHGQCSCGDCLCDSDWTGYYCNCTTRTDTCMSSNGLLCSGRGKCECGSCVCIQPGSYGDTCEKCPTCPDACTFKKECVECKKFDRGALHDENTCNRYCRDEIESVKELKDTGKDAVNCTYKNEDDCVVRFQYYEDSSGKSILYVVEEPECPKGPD

The first assay concerns the target T1, angiopoietin-2 (Ang2). Briefly: MBP fusion protein tested for binding to Ang2; method not restated (direct-binding ELISA in Example 19). Background: In an ELISA, binding on a coated surface is turned into a signal by an enzyme label.
Protocol: For detection of direct binding of MRD-MBP fusions to Ang2, the following ELISA was performed. […] MBP fusion proteins were serially diluted in Blocking buffer and added to wells for 2 hours at RT. After washing (8×300 μl wash buffer), samples were treated with HRP-mouse anti MBP mAb (NEB, cat #E8038S), diluted 1:4000 in Blocking buffer. After incubation for 1 hour at RT, wells were washed (8×3000 wash buffer) prior to receiving 100 μl of TMB substrate (KPL Laboratories). Color development was stopped with 100 μl of H₂SO₄, and absorbance was read at 450 nm.
For orientation: EC50 means the concentration giving half of the maximal effect. Read a high EC50 as lower potency in that assay. Turning to B1, the EC50 amounted to 1040 pM. B2 gave an EC50 of 426 pM. Still for that read-out and setting: as for B3, the figure is 182 pM; as for B4, 392 pM. Same read-out and setting: with B5 the figure was 902 pM; with B6, 240 pM.

For the molecule B7, the response was half-maximal at 1420 pM (EC50). This EC50 lies about 5.9-fold higher than the previous one. Still for that read-out and setting: with B8 the figure was 922 pM; with B9, 383 pM.

B10: the response was half-maximal at 1080 pM (EC50). On the same count and under the same terms, with B11 the figure was 20700 pM.

For a further assay, the target named is T2, insulin-like growth factor-I receptor (IGF1R) (UniProt P08069 31-932, limits assumed).
T2 construct: also called immobilized IGF-1R; IGR1R
Briefly: ELISA on coated antigen, absorbance at 405 nm, BSA-coated wells as control; single condition.
Turning to B12, the binding result is “no binding (tested: not shown)”.

The next assay addresses integrin αvβ3 (ELISA antigen) (UniProt P06756 31-992; P05106 27-718, limits assumed). The experiment in a line: ELISA on coated antigen, absorbance at 405 nm, BSA-coated wells as control; single condition; the bar is labelled Antigen, taken as the target of the MRD of the construct.
B13: the binding result is “no binding (tested: not shown)”.

In another assay the target is T1, angiopoietin-2 (Ang2). Briefly: ELISA, rhAng2 coated, MRD-MBP fusion detected with HRP anti-MBP mAb; EC50 from a 4 parameter fit.
Turning to MGAQTNFMPMHDDELLLYEQFILQQGLE (other) [L1-7D MHD], the response was half-maximal at 17000 pM (EC50).

For MGAQTNFMPMSDDELLLYEQFILQQGLE (other) [L1-7D MSD], the 50% effective concentration (EC50) is 1380 pM. Same read-out and setting: as for MGAQTNFMPMNDDELLLYEQFILQQGLE (other) [L1-7D MND], the figure is 411 pM; as for MGAQTNFMPMGDDELLLYEQFILQQGLE (other) [L1-7D MGD], 600 pM; as for PGSGGGSMGAQTNFMPMDNDELLLYEQFILQQGLE (other) [Lm32 KtoS], 199 pM. The same measure, in the same setting: with MGAQTNFMPMTDDELLLYEQFILQQGLE (other) [L1-7D MTD] the figure was 7340 pM.

Source of the values: patent US20120100166A1 (ZYNGENIA, published 2012).
